The record followed here is PMC4655416.

Assay [1] concerns the target CeHsp90-MC (middle and C-terminal domains of C. elegans Hsp90) (C. elegans).
Assay [2] shares this target. In words: AUC; sedimentation velocity with UV/VIS absorbance optics (OD280); PPH-5 titrated to a constant concentration of CeHsp90 (4 μM) or CeHsp90-MC (3.5 μM); global fit to sequential binding of a first and second PPH-5.

B1: protein phosphatase 5 from C. elegans (PPH-5) (enzyme)
chain: MAATITDDIVATVLESIEEKSYEDEKEKAGMIKDEANQFFKDQVYDVAADLYSVAIEIHPTAVLYGNRAQAYLKKELYGSALEDADNAIAIDPSYVKGFYRRATANMALGRFKKALTDYQAVVKVCPNDKDARAKFDECSKIVRRQKFEAAISTDHDKKTVAETLDINAMAIEDSYDGPRLEDKITKEFVLQLIKTFKNQQKLHKKYAFKMLLEFYNYVKSLPTMVEITVPTGKKFTICGDVHGQFYDLCNIFEINGYPSETNPYLFNGDFVDRGSFSVETIFTMIGFKLLYPNHFFMSRGNHESDVMNKMYGFEGEVKAKYTQQMCDMFTETFCWLPLCHLINEKIFVCHGGLFKEDGVTLEDIRKTDRNRQPPDEGIMCDLLWSDPQPINGRSPSKRGVGCQFGPDVTSKWCETNGIEYVVRSHEVKPEGYEMHHNGQCFTVFSAPNYCDQMNNKGAFITITGDNLTPRFTPFDAVPHPKLPPMAYANSLFGFN
B1: the kcat of PPH-5 towards the model peptide KRpTIRR (50 μM) with 3 μM Hsp90-MC in assay [1] was determined as 0.161 s⁻¹. Moreover, in assay [2], the stoichiometry N (PPH-5 per CeHsp90-MC dimer) was 2.
